The chains are these.
B1: Hairpin Ribozyme (parent)
chain: GUCCUCUUUCACGUGCGCGUGAAAGAGAGAAGUGAACCAGAGAAACACACGUUGUGGUAUAUUACCUGGUA

The data set covers variants of B1. As to the kind of experiment: self-cleavage, relative activity (ratio to wild type); higher = more cleavage; co-transcriptional.
As for A24U G69A, the self-cleavage was found to be 0.327. As for A24G U70C, the figure is 0.913; as for A24U G42U, 0.342. A24U G42C: the self-cleavage is 0.394. G25U U60A: the self-cleavage was found to be 0.391. To G25C A64C belongs 0.0865; to G25C A64G, 0.4. As for A23U A26G, the figure is 0.88.

As to A24G G29A, the self-cleavage was found to be 0.11. To A26C A49G belongs 0.461; to A26C A49U, 0.239. As for A23U C48G, the figure is 0.226. To A24U U63C belongs 0.233. Consider A23U A47C, for which the self-cleavage turned out to be 0.386.

For the variant G25U U63C, the self-cleavage was 0.184. Take G25U U63G: the self-cleavage was 0.174. Regarding G25U U53A, the self-cleavage worked out at 0.647.

Turning to G25C U63C, the self-cleavage turned out to be 0.204. To G25C U63G belongs 0.189; to G25C U63A, 0.0846.

In the case of A24G U63C, the self-cleavage turned out to be 0.0931. As for G25A G57C, the self-cleavage turned out to be 0.0684.

With G25C G40C, the self-cleavage was found to be 0.102. As for G25C G40U, the figure is 0.12; as for A23U A71C, 1.28. As for A24U G27C, the figure is 0.194.

Consider G25C A59G, for which the self-cleavage came out at 0.123. For the variant A24U G51U, the self-cleavage was 0.78.

Regarding A24U G51A, the self-cleavage came out at 0.751. As for A24C U52A, the figure is 1.05; as for A24C U52G, 1.08. To A24C A44U belongs 0.17. As for G25A A28C, the self-cleavage came to 0.394. On to G25A A28U, for which the self-cleavage turned out to be 0.585. To A24U U55G belongs 0.242; to A24U U55C, 0.11; to A24U U55A, 0.186. Turning to G25A A59G, the self-cleavage is 0.138. As for A24G A43G, the figure is 0.132. A24G G69U: the self-cleavage was 0.13. Turning to A23U U63A, the self-cleavage was found to be 0.142. As for A23U U63C, the figure is 0.182; as for G25U A71U, 0.575.

As to G25U A71C, the self-cleavage was found to be 1.08. To A23U A43G belongs 0.204; to A24C A36G, 0.928. To G25U C38U belongs 0.332; to G25C G29A, 0.13; to G25A C50A, 0.107. For the variant G25A A44C, the self-cleavage was found to be 0.139. To G25A A44G belongs 0.158; to A24C C48U, 0.216; to G25C C37A, 0.281. As for A24C A71G, the figure is 0.99. As for G25C G57A, the figure is 0.176; as for A24C A59U, 0.204.

As to A23U U62A, the self-cleavage worked out at 0.106.

On to G25C A61C, for which the self-cleavage was 0.0596. To G25A C48U belongs 0.135; to G25A C48A, 0.176. Turning to G25C A47G, the self-cleavage was found to be 0.071. To A24U A44U belongs 0.123; to A24U A64C, 0.142; to A24U A64U, 0.0963. As for A23U, the self-cleavage turned out to be 0.852. Regarding A26C A28C, the self-cleavage amounted to 0.329. To A23U G27U belongs 0.289; to G25A C66A, 0.15; to A24C G34C, 1.07. As for A24C G34U, the figure is 1.43; as for A24U G32C, 0.114; as for A24U G32A, 0.15.

Take G25C C46G: the self-cleavage was found to be 0.115. To A23U G56U belongs 0.184; to A23U G56A, 0.237. As for A23U U33A, the figure is 0.153. On to A24C G69U, for which the self-cleavage came to 0.188.

Regarding A23G U53C, the self-cleavage stood at 0.995. As for G25C G54U, the figure is 0.245; as for G25C G54A, 0.239. To A24U A36U belongs 0.41; to G25A C65U, 0.215. To G25U G29U belongs 0.126; to A24G A39G, 0.308; to G25A U70G, 0.509. Regarding G25A C46A, the self-cleavage was determined as 0.105. As for A23U A28G, the figure is 0.956; as for A24C G68A, 0.233; as for A24G A35U, 0.645. To A24G A35G belongs 0.797; to A24G A35C, 0.82. To G25U G40A belongs 0.256; to G25U G40C, 0.131; to G25U A39U, 0.242.

Regarding G25U U67G, the self-cleavage came to 0.18.

Turning to G25U U67C, the self-cleavage came to 0.178. Take A24G G40U: the self-cleavage amounted to 0.147.

In the case of G25C G69C, the self-cleavage worked out at 0.187. For G25C G69U, the self-cleavage was found to be 0.199.

G25C C66U: the self-cleavage was found to be 0.182.

For the variant G25C C66A, the self-cleavage was 0.133. To G25C A71G belongs 0.687; to A24C A39U, 0.573. To G25C U55G belongs 0.13; to G25C U55A, 0.163. Take G25C U55C: the self-cleavage is 0.108. Take A24U A28U: the self-cleavage is 0.521.

Turning to A24U A28G, the self-cleavage was 0.731. To G25C A36U belongs 0.397; to G25A U67C, 0.166.

G25A U67G: the self-cleavage was determined as 0.176.

With G25A A61U, the self-cleavage came to 0.0154.

Regarding A26C A45C, the self-cleavage stood at 0.155.

For A23U A61G, the self-cleavage was found to be 0.125.

With A23U A61C, the self-cleavage is 0.126. With A23U U60G, the self-cleavage is 0.569. In the case of A23U U60C, the self-cleavage worked out at 0.749. To A23G U55G belongs 0.192; to A23U G68A, 0.184; to A23U G68C, 0.139.

Regarding A24G A44G, the self-cleavage came to 0.152. In the case of G25C G42A, the self-cleavage turned out to be 0.174.

Take A23U U53A: the self-cleavage was determined as 0.969. As for A23U U53G, the figure is 0.696; as for A23U U53C, 0.935. As for G25U A28U, the figure is 0.509; as for G25C C50G, 0.178. As to A24G U53C, the self-cleavage stood at 0.881. As for A24U G68C, the figure is 0.0904; as for A24U G68A, 0.361. As for G25C A28G, the figure is 0.883; as for G25A C37G, 0.134; as for G25A C37A, 0.199. Consider A24C U62G, for which the self-cleavage is 0.199.

Take G25A G40C: the self-cleavage is 0.145.

Turning to G25A G40A, the self-cleavage stood at 0.191.

With A24G A61U, the self-cleavage came out at 0.084. On to G25A U55C, for which the self-cleavage amounted to 0.208. To A24G A49G belongs 0.352; to A24G A49U, 0.124. To A23G U67G belongs 0.18; to A23U G29A, 0.145; to A24G A36C, 0.466. As for A24G A64U, the figure is 0.135. Turning to A24G U33G, the self-cleavage amounted to 0.0457. To A24G U33C belongs 0.125; to G25C A43C, 0.0652.

For the variant G25C A43U, the self-cleavage is 0.243.

As for G25A A31G, the self-cleavage came out at 0.127. To A23U A36U belongs 0.491; to A23U A36G, 0.681.

A24U U67G: the self-cleavage worked out at 0.231. As for A24U U67C, the figure is 0.207; as for A26C A59G, 0.0796; as for G25C U58G, 0.403. As for G25U A61U, the self-cleavage is 0.185. To A24C A28C belongs 0.349; to G25U G54U, 0.399; to A24U U53G, 0.674.

Regarding A24U G54A, the self-cleavage amounted to 0.472.

On to A24U G54C, for which the self-cleavage amounted to 0.423. As for G25A A47G, the figure is 0.277; as for A24U A43C, 0.174; as for A24C G54A, 0.547. To A24C U63C belongs 0.184; to G25U G34U, 1.28.

Turning to G25U G34C, the self-cleavage turned out to be 1.13.
